The values below come from patent publication WO2021136808A1 (dated 2021).

This assay addresses T1, human CTLA-4 (AA Ala37-Ser160) - Fc Tag fusion protein (AcroBiosystem, catalog no. CT4-H5255) (human, UniProt P16410 37-160).
T1 construct: range 37-160; Bought reagent, coated to the ELISA plate wells as capture reagent; also called human CTLA-4 - Fc Tag fusion protein; not shown: Fc tag
T1 sequence (looked up): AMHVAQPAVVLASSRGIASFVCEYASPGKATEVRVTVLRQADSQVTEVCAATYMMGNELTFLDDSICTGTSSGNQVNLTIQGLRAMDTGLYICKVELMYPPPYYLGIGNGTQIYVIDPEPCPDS
The experiment in a line: in-house sandwich ELISA, CTLA-4-Fc coated on plate, HHC MET in rat plasma. On the technique in general: In an ELISA, binding on a coated surface is turned into a signal by an enzyme label.

B1: HHC MET (VHH)
chain: EVQLVESGGGLVQAGGSLRLSCAASGGTFSFYGMGWFRQAPGKEQEFVADIRTSAGRTYYADSVKGRFTISRDNAKNTVYLQMNSLKPEDTAVYYCAAEMSGISGWDYWGQGTQVTVSSGGGGSGGGSEVQLVESGGGLVQAGGSLRLSCAASGGTFSFYGMGWFRQAPGKEQEFVADIRTSAGRTYYADSVKGRFTISRDNAKNTVYLQMNSLKPEDTAVYYCAAEMSGISGWDYWGQGTQVTVSS
notes: Single polypeptide expressed in E. coli; In the ELISA it stood as free protein in rat plasma (calibration standards and samples); also called free HHC MET
For the molecule B1, the binding result is on record as “binds”.
